# According to publication PMC11574045, “A cofactor-induced repressive type of transcription factor condensation can be induced by synthetic peptides to suppress tumorigenesis” (The EMBO Journal, 2024):
# B1: IRF3 (protein, UniProt Q14653 1-427, looked up)
# Interferon regulatory factor 3: MGTPKPRILPWLVSQLDLGQLEGVAWVNKSRTRFRIPWKHGLRQDAQQEDFGIFQAWAEATGAYVPGRDKPDLPTWKRNFRSALNRKEGLRLAEDRSKDPHDPHKIYEFVNSGVGDFSQPDTSPDTNGGGSTSDTQEDILDELLGNMVLAPLPDPGPPSLAVAPEPCPQPLRSPSLDNPTPFPNLGPSENPLKRLLVPGEEWEFEVTAFYRGRQVFQQTISCPEGLRLVGSEVGDRTLPGWPVTLPDPGMSLTDRGVMSYVRHVLSCLGGGLALWRAGQWLWAQRLGHCHTYWAVSEELLPNSGHGPDGEVPKDKEGGVFDLGPFIVDLITFTEGSGRSPRYALWFCVGESWPQDQPWTKRLVMVKVVPTCLRALVEMARVGGASSLENTVDLHISNSHPLSLTSDQYKAYLQDLVEGMDFQGPGES
# B2: JUNB (protein, UniProt P17275 1-347, looked up)
# Transcription factor JunB: MCTKMEQPFYHDDSYTATGYGRAPGGLSLHDYKLLKPSLAVNLADPYRSLKAPGARGPGPEGGGGGSYFSGQGSDTGASLKLASSELERLIVPNSNGVITTTPTPPGQYFYPRGGGSGGGAGGAGGGVTEEQEGFADGFVKALDDLHKMNHVTPPNVSLGATGGPPAGPGGVYAGPEPPPVYTNLSSYSPASASSGGAGAAVGTGSSYPTTTISYLPHAPPFAGGHPAQLGLGRGASTFKEEPQTVPEARSRDATPPVSPINMEDQERIKVERKRLRNRLAATKCRKRKLERIARLEDKVKTLKAENAGLSSTAGLLREQVAQLKQKVMTHVSNGCQLLLGVKGHAF
# B3: IRF1 (protein, UniProt P10914 1-325, looked up)
# Interferon regulatory factor 1: MPITRMRMRPWLEMQINSNQIPGLIWINKEEMIFQIPWKHAAKHGWDINKDACLFRSWAIHTGRYKAGEKEPDPKTWKANFRCAMNSLPDIEEVKDQSRNKGSSAVRVYRMLPPLTKNQRKERKSKSSRDAKSKAKRKSCGDSSPDTFSDGLSSSTLPDDHSSYTVPGYMQDLEVEQALTPALSPCAVSSTLPDWHIPVEVVPDSTSDLYNFQVSPMPSTSEATTDEDEEGKLPEDIMKLLEQSEWQPTNVDGKGYLLNEPGVQPTSVYGDFSCKEEPEIDSPGGDIGLSLQRVFTDLKNMDATWLDSLLTPVRLPSIQAIPCAP
# B4: JDP2 (protein, UniProt P97875 1-163, looked up)
# Jun dimerization protein 2: MMPGQIPDPSVTAGSLPGLGPLTGLPSSALTTEELKYADIRNIGAMIAPLHFLEVKLGKRPQPVKSELDEEEERRKRRREKNKVAAARCRNKKKERTEFLQRESERLELMNAELKTQIEELKLERQQLILMLNRHRPTCIVRTDSVRTPESEGNPLLEQLDKK
# B5: ARRB1 (protein, UniProt P49407 1-418, looked up)
# Beta-arrestin-1: MGDKGTRVFKKASPNGKLTVYLGKRDFVDHIDLVDPVDGVVLVDPEYLKERRVYVTLTCAFRYGREDLDVLGLTFRKDLFVANVQSFPPAPEDKKPLTRLQERLIKKLGEHAYPFTFEIPPNLPCSVTLQPGPEDTGKACGVDYEVKAFCAENLEEKIHKRNSVRLVIRKVQYAPERPGPQPTAETTRQFLMSDKPLHLEASLDKEIYYHGEPISVNVHVTNNTNKTVKKIKISVRQYADICLFNTAQYKCPVAMEEADDTVAPSSTFCKVYTLTPFLANNREKRGLALDGKLKHEDTNLASSTLLREGANREILGIIVSYKVKVKLVVSRGGLLGDLASSDVAVELPFTLMHPKPKEEPPHREVPENETPVDTNLIELDTNDDDIVFEDFARQRLKGMKDDKEEEEDGTGSPQLNNR
# B6: IRF5 (protein, UniProt Q13568 1-498, looked up)
# Interferon regulatory factor 5: MNQSIPVAPTPPRRVRLKPWLVAQVNSCQYPGLQWVNGEKKLFCIPWRHATRHGPSQDGDNTIFKAWAKETGKYTEGVDEADPAKWKANLRCALNKSRDFRLIYDGPRDMPPQPYKIYEVCSNGPAPTDSQPPEDYSFGAGEEEEEEEELQRMLPSLSLTEDVKWPPTLQPPTLRPPTLQPPTLQPPVVLGPPAPDPSPLAPPPGNPAGFRELLSEVLEPGPLPASLPPAGEQLLPDLLISPHMLPLTDLEIKFQYRGRPPRALTISNPHGCRLFYSQLEATQEQVELFGPISLEQVRFPSPEDIPSDKQRFYTNQLLDVLDRGLILQLQGQDLYAIRLCQCKVFWSGPCASAHDSCPNPIQREVKTKLFSLEHFLNELILFQKGQTNTPPPFEIFFCFGEEWPDRKPREKKLITVQVVPVAARLLLEMFSGELSWSADSIRLQISNPDLKDRMVEQFKELHHIWQSQQRLQPVAQAPPGAGLGVGQGPWPMHPAGMQ
# B7: JUP (protein, UniProt P14923 1-745, looked up)
# Junction plakoglobin: MEVMNLMEQPIKVTEWQQTYTYDSGIHSGANTCVPSVSSKGIMEEDEACGRQYTLKKTTTYTQGVPPSQGDLEYQMSTTARAKRVREAMCPGVSGEDSSLLLATQVEGQATNLQRLAEPSQLLKSAIVHLINYQDDAELATRALPELTKLLNDEDPVVVTKAAMIVNQLSKKEASRRALMGSPQLVAAVVRTMQNTSDLDTARCTTSILHNLSHHREGLLAIFKSGGIPALVRMLSSPVESVLFYAITTLHNLLLYQEGAKMAVRLADGLQKMVPLLNKNNPKFLAITTDCLQLLAYGNQESKLIILANGGPQALVQIMRNYSYEKLLWTTSRVLKVLSVCPSNKPAIVEAGGMQALGKHLTSNSPRLVQNCLWTLRNLSDVATKQEGLESVLKILVNQLSVDDVNVLTCATGTLSNLTCNNSKNKTLVTQNSGVEALIHAILRAGDKDDITEPAVCALRHLTSRHPEAEMAQNSVRLNYGIPAIVKLLNQPNQWPLVKATIGLIRNLALCPANHAPLQEAAVIPRLVQLLVKAHQDAQRHVAAGTQQPYTDGVRMEEIVEGCTGALHILARDPMNRMEIFRLNTIPLFVQLLYSSVENIQRVAAGVLCELAQDKEAADAIDAEGASAPLMELLHSRNEGTATYAAAVLFRISEDKNPDYRKRVSVELTNSLFKHDPAAWEAAQSMIPINEPYGDDMDATYRPMYSSDVPLDPLEMHMDMDGDYPIDTYSDGLRPPYPTADHMLA
# B8: JADE2 (protein, UniProt Q9NQC1 1-790, looked up)
# E3 ubiquitin-protein ligase …: MEEKRRKYSISSDNSDTTDSHATSTSASRCSKLPSSTKSGWPRQNEKKPSEVFRTDLITAMKIPDSYQLSPDDYYILADPWRQEWEKGVQVPAGAEAIPEPVVRILPPLEGPPAQASPSSTMLGEGSQPDWPGGSRYDLDEIDAYWLELINSELKEMERPELDELTLERVLEELETLCHQNMARAIETQEGLGIEYDEDVVCDVCRSPEGEDGNEMVFCDKCNVCVHQACYGILKVPTGSWLCRTCALGVQPKCLLCPKRGGALKPTRSGTKWVHVSCALWIPEVSIGCPEKMEPITKISHIPASRWALSCSLCKECTGTCIQCSMPSCVTAFHVTCAFDHGLEMRTILADNDEVKFKSFCQEHSDGGPRNEPTSEPTEPSQAGEDLEKVTLRKQRLQQLEEDFYELVEPAEVAERLDLAEALVDFIYQYWKLKRKANANQPLLTPKTDEVDNLAQQEQDVLYRRLKLFTHLRQDLERVRNLCYMVTRRERTKHAICKLQEQIFHLQMKLIEQDLCRGLSTSFPIDGTFFNSWLAQSVQITAENMAMSEWPLNNGHREDPAPGLLSEELLQDEETLLSFMRDPSLRPGDPARKARGRTRLPAKKKPPPPPPQDGPGSRTTPDKAPKKTWGQDAGSGKGGQGPPTRKPPRRTSSHLPSSPAAGDCPILATPESPPPLAPETPDEAASVAADSDVQVPGPAASPKPLGRLRPPRESKVTRRLPGARPDAGMGPPSAVAERPKVSLHFDTETDGYFSDGEMSDSDVEAEDGGVQRGPREAGAEEVVRMGVLAS
# B9: KLRG1 (protein, UniProt Q96E93 1-195, looked up)
# Killer cell lectin-like …: MTDSVIYSMLELPTATQAQNDYGPQQKSSSSRPSCSCLVAIALGLLTAVLLSVLLYQWILCQGSNYSTCASCPSCPDRWMKYGNHCYYFSVEEKDWNSSLEFCLARDSHLLVITDNQEMSLLQVFLSEAFCWIGLRNNSGWRWEDGSPLNFSRISSNSFVQTCGAINKNGLQASSCEVPLHWVCKKCPFADQALF
# B10: IRF8 (protein, UniProt Q02556 1-426, looked up)
# Interferon regulatory factor 8: MCDRNGGRRLRQWLIEQIDSSMYPGLIWENEEKSMFRIPWKHAGKQDYNQEVDASIFKAWAVFKGKFKEGDKAEPATWKTRLRCALNKSPDFEEVTDRSQLDISEPYKVYRIVPEEEQKCKLGVATAGCVNEVTEMECGRSEIDELIKEPSVDDYMGMIKRSPSPPEACRSQLLPDWWAQQPSTGVPLVTGYTTYDAHHSAFSQMVISFYYGGKLVGQATTTCPEGCRLSLSQPGLPGTKLYGPEGLELVRFPPADAIPSERQRQVTRKLFGHLERGVLLHSSRQGVFVKRLCQGRVFCSGNAVVCKGRPNKLERDEVVQVFDTSQFFRELQQFYNSQGRLPDGRVVLCFGEEFPDMAPLRSKLILVQIEQLYVRQLAEEAGKSCGAGSVMQAPEEPPPDQVFRMFPDICASHQRSFFRENQQITV
# B11: IRF9 (protein, UniProt Q00978 1-393, looked up)
# Interferon regulatory factor 9: MASGRARCTRKLRNWVVEQVESGQFPGVCWDDTAKTMFRIPWKHAGKQDFREDQDAAFFKAWAIFKGKYKEGDTGGPAVWKTRLRCALNKSSEFKEVPERGRMDVAEPYKVYQLLPPGIVSGQPGTQKVPSKRQHSSVSSERKEEEDAMQNCTLSPSVLQDSLNNEEEGASGGAVHSDIGSSSSSSSPEPQEVTDTTEAPFQGDQRSLEFLLPPEPDYSLLLTFIYNGRVVGEAQVQSLDCRLVAEPSGSESSMEQVLFPKPGPLEPTQRLLSQLERGILVASNPRGLFVQRLCPIPISWNAPQAPPGPGPHLLPSNECVELFRTAYFCRDLVRYFQGLGPPPKFQVTLNFWEESHGSSHTPQNLITVKMEQAFARYLLEQTPEQQAAILSLV
# B12: IRF2 (protein, UniProt P14316 1-349, looked up)
# Interferon regulatory factor 2: MPVERMRMRPWLEEQINSNTIPGLKWLNKEKKIFQIPWMHAARHGWDVEKDAPLFRNWAIHTGKHQPGVDKPDPKTWKANFRCAMNSLPDIEEVKDKSIKKGNNAFRVYRMLPLSERPSKKGKKPKTEKEDKVKHIKQEPVESSLGLSNGVSDLSPEYAVLTSTIKNEVDSTVNIIVVGQSHLDSNIENQEIVTNPPDICQVVEVTTESDEQPVSMSELYPLQISPVSSYAESETTDSVPSDEESAEGRPHWRKRNIEGKQYLSNMGTRGSYLLPGMASFVTSNKPDLQVTIKEESNPVPYNSSWPPFQDLPLSSSMTPASSSSRPDRETRASVIKKTSDITQARVKSC
# Test system: HEK293FT cells transfected with TF library
# Test: Screening of TF condensates based on fluorescent puncta
# Type: cell-based
# Conditions: Figure 1B numerical data; TF library screen, one value per transcriptional factor
# Procedure, shortened: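 Each TF construct was introduced into HEK293FT cells using PEI at 4.8 μg/ml; glucose deprivation versus normal medium lasted 12 h. Automated confocal-style imaging of tagged TF staining, 50 fields per well, gave the puncta data.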
row,Molecule,Z score of condensed fraction
1,B1,1.843
2,B2,-0.9915
3,B3,-0.5727
4,B4,-1.182
5,B5,0.4258
6,B6,-0.5098
7,B7,-0.6246
8,B8,-1.0906
9,B9,2.376
10,B10,2.123
11,B11,1.05
12,B12,-0.3538
